From paper PMC10085699
Where a chain is given by its changes, count along the chain named. Where two headings read alike, the source gives them in different places.

Tests used:
[1] = target: T1, SETX-HD-WT (Homo sapiens, UniProt Q7Z333 1674-2677); assay: EMSA
T1 sequence: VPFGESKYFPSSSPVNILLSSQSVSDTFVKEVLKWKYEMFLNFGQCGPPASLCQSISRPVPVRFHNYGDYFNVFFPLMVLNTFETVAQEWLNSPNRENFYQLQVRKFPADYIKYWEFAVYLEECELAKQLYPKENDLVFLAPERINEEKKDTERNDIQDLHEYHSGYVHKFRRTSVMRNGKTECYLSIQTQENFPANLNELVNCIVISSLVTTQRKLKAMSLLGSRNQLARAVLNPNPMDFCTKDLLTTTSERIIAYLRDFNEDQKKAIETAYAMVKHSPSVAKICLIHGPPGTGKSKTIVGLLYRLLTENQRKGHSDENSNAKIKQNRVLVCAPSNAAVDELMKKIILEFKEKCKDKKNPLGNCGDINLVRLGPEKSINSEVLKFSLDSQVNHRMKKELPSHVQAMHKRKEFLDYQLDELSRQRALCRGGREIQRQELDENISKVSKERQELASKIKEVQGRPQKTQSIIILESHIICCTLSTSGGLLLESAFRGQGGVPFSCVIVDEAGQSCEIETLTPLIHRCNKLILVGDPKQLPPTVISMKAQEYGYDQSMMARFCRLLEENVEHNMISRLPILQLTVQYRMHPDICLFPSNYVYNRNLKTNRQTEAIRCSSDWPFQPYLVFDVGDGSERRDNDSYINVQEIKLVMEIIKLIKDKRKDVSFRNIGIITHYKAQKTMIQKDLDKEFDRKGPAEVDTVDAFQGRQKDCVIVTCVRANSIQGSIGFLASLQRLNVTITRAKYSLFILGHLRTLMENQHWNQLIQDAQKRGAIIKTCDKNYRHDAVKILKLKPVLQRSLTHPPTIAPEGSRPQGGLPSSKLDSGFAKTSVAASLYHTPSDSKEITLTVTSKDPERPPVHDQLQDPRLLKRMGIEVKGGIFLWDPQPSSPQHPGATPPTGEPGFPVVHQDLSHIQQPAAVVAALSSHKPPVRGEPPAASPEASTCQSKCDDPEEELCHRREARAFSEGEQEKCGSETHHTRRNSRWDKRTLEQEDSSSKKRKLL

[2] = target: T1, SETX-HD-WT; assay: EMSA; remark: listed apart in the source
[3] = target: T1, SETX-HD-WT; assay: EMSA; remark: listed apart in the source
[4] = target: T1, SETX-HD-WT; assay: BLI
[5] = target: T2, Sen1-HD (UniProt Q00416 1095-1904); assay: BLI
T2 sequence: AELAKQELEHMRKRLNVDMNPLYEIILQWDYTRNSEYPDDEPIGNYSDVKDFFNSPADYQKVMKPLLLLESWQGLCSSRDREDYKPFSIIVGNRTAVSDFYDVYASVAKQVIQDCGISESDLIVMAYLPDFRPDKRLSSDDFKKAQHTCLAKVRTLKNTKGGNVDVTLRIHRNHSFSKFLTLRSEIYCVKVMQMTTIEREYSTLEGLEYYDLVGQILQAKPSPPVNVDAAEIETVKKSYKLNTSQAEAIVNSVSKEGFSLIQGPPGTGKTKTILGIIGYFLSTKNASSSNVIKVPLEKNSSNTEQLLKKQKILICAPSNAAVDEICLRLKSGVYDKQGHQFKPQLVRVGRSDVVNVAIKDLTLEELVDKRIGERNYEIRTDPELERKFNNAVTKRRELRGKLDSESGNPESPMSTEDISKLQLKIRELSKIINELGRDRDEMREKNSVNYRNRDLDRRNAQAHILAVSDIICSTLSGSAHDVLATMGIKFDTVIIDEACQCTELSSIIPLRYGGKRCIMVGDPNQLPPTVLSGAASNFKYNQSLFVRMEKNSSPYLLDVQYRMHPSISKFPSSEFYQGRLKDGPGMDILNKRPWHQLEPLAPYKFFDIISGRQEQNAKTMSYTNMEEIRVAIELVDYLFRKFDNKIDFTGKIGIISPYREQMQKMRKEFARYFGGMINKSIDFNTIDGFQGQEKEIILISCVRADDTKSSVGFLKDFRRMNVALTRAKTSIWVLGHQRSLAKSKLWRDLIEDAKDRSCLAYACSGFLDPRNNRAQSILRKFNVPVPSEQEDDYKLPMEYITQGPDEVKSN

[6] = target: T3, SETX-HD-V1884T (Homo sapiens, UniProt Q7Z333 1674-2677, V1884T); assay: BLI
T3 sequence: T1 sequence with V211T

[7] = target: T1, SETX-HD-WT; assay: EMSA; remark: listed apart in the source
[8] = target: T2, Sen1-HD; assay: BLI; remark: listed apart in the source
[9] = target: T1, SETX-HD-WT; assay: BLI; remark: listed apart in the source

B1: 5'-oh RNA:DNA hybrid (pRMS678/pRMS690) (DNA:RNA)
RNA: UUGUCUUCUCAUAAAUUUAAUCCCCGUACGCUUAUACUCCUUUAACUACCCAGUCUUCCCG
DNA: CGGGAAGACTGGGTAGTTAA
B1: binds [1].

B2: blunt RNA:DNA hybrid (pRMS678/pRMS743) (DNA:RNA)
RNA: B1 RNA
DNA: CGGGAAGACTGGGTAGTTAAAGGAGTATAAGCGTACGGGGATTAAATTTATGAGAAGACAA
B2: no binding [2].

B3: 3'-oh RNA:DNA hybrid (pRMS678/pRMS689) (DNA:RNA)
RNA: B1 RNA
DNA: TTAAATTTATGAGAAGACAA
B3: binds [3].

B4: ssRNA pRMS740 (41 nt) (ssRNA)
RNA: UUGUCUUCUCAUAAAUUUAAUCCCCGUACGCUUAUACUCCU
B4 was tested, and the Kd [4] was 4.6 nM, the Kd [5] was 3.7 nM and the binding result [6] was “binds”.

B5: 5'-oh R-loop (pRMS217/219/222) (mixed)
DNA 1: GACGCTGCCGAATTCTACCAGTGCCTTGCTAGGACATCTTTGCCCACCTGCAGGTTCACCC
DNA 2: GGGTGAACCTGCAGGTGGGCGGCTGCTCATCGTAGGTTAGTTGGTAGAATTCGGCAGCGTC
RNA: UAAGAGCAAGAUGUUCUAUAAAAGAUGUCCUAGCAAGGCAC
B5: binds [7].

B6: 3'-oh R-loop (pRMS217/219/626) (mixed)
DNA 1: B5 DNA 1
DNA 2: B5 DNA 2
RNA: AAAGAUGUCCUAGCAAGGCACUAAGUCCUAGAUGUUCUAUA
B6: binds [7].

B7: R-loop, no overhang (pRMS217/219/223) (mixed)
DNA 1: B5 DNA 1
DNA 2: B5 DNA 2
RNA: AAAGAUGUCCUAGCAAGGCAC
B7: binds [7].

B8: ssDNA pRMS739 (41 nt) (ssDNA)
DNA: TTGTCTTCTCATAAATTTAATCCCCGTACGCTTATACTCCT
B8 showed a Kd [8] of 3.4 nM and a Kd [9] of 2.8 nM.
